Results: patent publication US20230295277A1

Assays:
Assay in all cases: cell-based or functional assay
[1] = biological target: full-length subtype B consensus gp160 expressed on HEK293 cells (vector pConBgp160-opt) (HIV-1 subtype B (consensus))
[2] = biological target: subtype C consensus gp160 protein expressed on HEK293 cells (vector pConCgp160-opt) (HIV-1 subtype C (consensus))
[3] = biological target: CD19 on REH cells (human) (UniProt P15391)
Chain of UniProt P15391 (P15391 20-556): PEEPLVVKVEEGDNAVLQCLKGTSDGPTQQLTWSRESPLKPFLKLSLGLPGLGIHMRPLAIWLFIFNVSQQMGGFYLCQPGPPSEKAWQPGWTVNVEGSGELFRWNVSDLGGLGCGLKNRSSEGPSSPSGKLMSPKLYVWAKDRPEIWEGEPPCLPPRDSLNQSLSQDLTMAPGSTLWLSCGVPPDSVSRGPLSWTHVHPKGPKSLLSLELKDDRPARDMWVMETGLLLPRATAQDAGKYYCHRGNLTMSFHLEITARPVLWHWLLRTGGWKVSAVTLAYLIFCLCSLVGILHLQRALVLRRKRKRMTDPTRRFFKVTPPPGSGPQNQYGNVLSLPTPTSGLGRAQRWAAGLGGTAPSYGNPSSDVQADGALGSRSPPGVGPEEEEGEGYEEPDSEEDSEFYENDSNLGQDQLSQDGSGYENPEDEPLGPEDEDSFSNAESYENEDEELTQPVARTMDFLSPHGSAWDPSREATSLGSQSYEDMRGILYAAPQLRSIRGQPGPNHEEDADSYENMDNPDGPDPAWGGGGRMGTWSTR

“2G12-based anti-gp160 CAR (pFUW-2G12-CD28-CD3ζ) on NK-92MI cells (from UniProt P01732 138-182; P10747 153-220; P20963 52-164)” gave a percentage of gp160+ cells killed by 2G12 CAR-NK cells, E:T 25:1 [1] of 60%.
With DNP-conjugated 3BNC117 (antibody) the IFN-γ production by anti-DNP CAR-NK cells (ELISA), adaptor 2 nM, against the isotype control [1] was 2 fold, the percentage of gp160+ cells killed by anti-DNP CAR-NK cells, flow cytometry, 8 h, E:T 25:1, adaptor 2 nM [1] was 50% and the percentage of gp160+ cells killed by universal CAR-NK cells [1] was 45.5%. The percentage of gp160+ cells killed by universal CAR-NK cells [2] was 19.7% and the percentage of subtype C gp160+ cells lysed by anti-DNP CAR-NK cells, 8 h, E:T 25:1, adaptor 2 nM [2] was 20%.
With DNP-conjugated 10-1074 (antibody) the percentage of gp160+ cells killed by anti-DNP CAR-NK cells, flow cytometry, 8 h, E:T 25:1, adaptor 2 nM [1] was 50%, the percentage of gp160+ cells killed by anti-DNP CAR-T cells, E/T 1:1, 48 h, adaptor 10 nM [1] was 29% and the percentage of gp160+ cells killed by universal CAR-NK cells [1] was 53.1%. The percentage of gp160+ cells killed by universal CAR-NK cells [2] was 29.8% and the percentage of subtype C gp160+ cells killed by anti-DNP CAR-NK cells, 8 h, E:T 25:1, adaptor 2 nM [2] was 30%.
With DNP-conjugated PG9 (antibody) the percentage of gp160+ cells killed by anti-DNP CAR-NK cells, flow cytometry, 8 h, E:T 25:1, adaptor 2 nM [1] was 50% and the percentage of subtype C gp160+ cells killed by anti-DNP CAR-NK cells, 8 h, E:T 25:1, adaptor 2 nM [2] was 30%.
For DNP-conjugated VRC01 (antibody), the percentage of gp160+ cells killed by anti-DNP CAR-NK cells, flow cytometry, 8 h, E:T 25:1, adaptor 2 nM [1] was 28.5% and the percentage of subtype C gp160+ cells lysed by anti-DNP CAR-NK cells, 8 h, E:T 25:1, adaptor 2 nM [2] was 20%.
Substance “DNP-conjugated anti-CD19 antibody (clone FMC63)” has a percentage of REH cells killed by anti-DNP CAR-NK cells, flow cytometry, E:T 25:1, overnight, adaptor 50 nM [3] of 59% and a percentage of REH cells remaining alive, flow cytometry, E:T 25:1, overnight, adaptor 50 nM [3] of 41%.
For DNP-conjugated antibody 2G12, the adaptor concentration at which IFN-γ production of CAR-NK cells reached a plateau [1] was over 2 nM, the percentage of gp160+ cells killed by anti-DNP CAR-NK cells, flow cytometry, 8 h, E:T 25:1, adaptor 2 nM [1] was 50% and the percentage of gp160+ cells killed by anti-DNP CAR-T cells, E/T 1:1, 48 h, adaptor 10 nM [1] was 34%. It also gave a percentage of gp160+ cells killed by universal (anti-DNP) CAR-NK cells with DNP-conjugated 2G12, E:T 25:1 [1] of 50%.
